This data set deals with T1, murine OX40-human IgG Fc fusion (extracellular portion) (Mus musculus, UniProt P47741 20-211).
T1 sequence: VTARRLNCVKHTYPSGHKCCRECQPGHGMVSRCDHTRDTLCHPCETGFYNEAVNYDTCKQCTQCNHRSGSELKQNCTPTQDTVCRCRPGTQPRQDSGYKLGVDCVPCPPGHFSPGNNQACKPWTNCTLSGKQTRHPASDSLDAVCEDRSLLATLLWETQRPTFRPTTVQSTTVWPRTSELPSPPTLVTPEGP
Description: filter binding.

B1: aptamer 9.8PM (point mutant) (structured_RNA)
RNA: GGGAGGACGAUGCGGCAGUCUGCAUCGUAGGAUUAGCCACCGUAUACUUUCCCACCAGACGACUCGCUGAGGAUCCGAGA
modifications: 2'-fluoro pyrimidines, 2'-OH purines
Regarding B1, the binding result is reported as “no binding”.

(Values after publication PMC2525512.)
